The values that follow come from US20090098106.

Data set [1] addresses T1, HC8 (α7) subunit of the human 20S proteasome, P25788.
T1 chain: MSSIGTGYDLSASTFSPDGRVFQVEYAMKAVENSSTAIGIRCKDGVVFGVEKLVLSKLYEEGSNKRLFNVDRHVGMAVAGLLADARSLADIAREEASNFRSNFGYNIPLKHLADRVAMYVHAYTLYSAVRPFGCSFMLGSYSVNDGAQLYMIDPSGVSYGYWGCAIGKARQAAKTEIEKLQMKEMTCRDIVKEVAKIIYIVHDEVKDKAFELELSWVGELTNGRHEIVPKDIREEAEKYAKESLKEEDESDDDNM

Data set [2] has as its target T2, HC8 SS 243,250AA mutant, P25788.
T2 chain: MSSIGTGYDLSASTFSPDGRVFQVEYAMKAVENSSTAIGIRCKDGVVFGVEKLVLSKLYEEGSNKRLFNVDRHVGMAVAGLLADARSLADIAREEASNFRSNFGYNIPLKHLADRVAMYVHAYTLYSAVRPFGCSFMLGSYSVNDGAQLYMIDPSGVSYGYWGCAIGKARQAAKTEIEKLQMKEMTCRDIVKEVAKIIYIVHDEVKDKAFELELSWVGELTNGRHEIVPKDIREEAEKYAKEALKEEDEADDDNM

B1: NF-κB inducing kinase (NIK), human, full length (protein)
chain: MAVMEMACPGAPGSAVGQQKELPKPKEKTPPLGKKQSSVYKLEAVEKSPVFCGKWEILNDVITKGTAKEGSEAGPAAISIIAQAECENSQEFSPTFSERIFIAGSKQYSQSESLDQIPNNVAHATEGKMARVCWKGKRRSKARKKRKKKSSKSLAHAGVALAKPLPRTPEQESCTIPVQEDESPLGAPYVRNTPQFTKPLKEPGLGQLCFKQLGEGLRPALPRSELHKLISPLQCLNHVWKLHHPQDGGPLPLPTHPFPYSRLPHPFPFHPLQPWKPHPLESFLGKLACVDSQKPLPDPHLSKLACVDSPKPLPGPHLEPSCLSRGAHEKFSVEEYLVHALQGSVSSSQAHSLTSLAKTWAARGSRSREPSPKTEDNEGVLLTEKLKPVDYEYREEVHWATHQLRLGRGSFGEVHRMEDKQTGFQCAVKKVRLEVFRAEELMACAGLTSPRIVPLYGAVREGPWVNIFMELLEGGSLGQLVKEQGCLPEDRALYYLGQALEGLEYLHSRRILHGDVKADNVLLSSDGSHAALCDFGHAVCLQPDGLGKSLLTGDYIPGTETHMAPEVVLGRSCDAKVDVWSSCCMMLHMLNGCHPWTQFFRGPLCLKIASEPPPVREIPPSCAPLTAQAIQEGLRKEPIHRVSAAELGGKVNRALQQVGGLKSPWRGEYKEPRHPPPNQANYHQTLHAQPRELSPRAPGPRPAEETTGRAPKLQPPLPPEPPEPNKSPPLTLSKEESGMWEPLPLSSLEPAPARNPSSPERKATVPEQELQQLEIELFLNSLSQPFSLEEQEQILSCLSIDSLSLSDDSEKNPSKASQSSRDTLSSGVHSWSSQAEARSSSWNMVLARGRPTDTPSYFNGVKVQIQSLNGEHLHIREFHRVKVGDIATGISSQIPAAAFSLVTKDGQPVRYDMEVPDSGIDLQCTLAPDGSFAWSWRVKHGQLENRP
As to B1, the “in vitro kinase assay (phosphorylation of HC8 in the immunoprecipitate)” value in data set [1] is “HC8 was found to be a substrate for NIK phosphorylation in an in vitro kinase assay”; in data set [2], “Replacement of two serine residues on HC8 (amino acids 243 and 250) by alanine completely abolished the NIK-induced phosphorylation of HC8”.
